Test results published in US20210093714A1, “Combination and method for inhibiting the cancer cells” (NATIONAL TAIWAN UNIVERSITY, priority 2013, published 2021).

Legend:
EGFR [1] = assay: Immunoprecipitation and in vitro binding assay of CCN2 and EGFR; design: species or system human; details: A549; FIG. 2C
Protocol: CCN2 transfectants were seeded overnight and incubated in serum-free media for 24 h. For immunoprecipitations, cells were lysed in an RIPA buffer (150 mM NaCl, 50 mM Tris-base, 5 mM EDTA, 1% NP-40, and 0.25% deoxycholate; pH 7.4). Protein concentrations were determined using the BCA protein assay kit (Pierce, Rockford, Ill., USA). Lysate was incubated for 2 h at 4[…] with gentle rotation with rabbit polyclonal antibodies for human EGFR, CCN2, or Src immobilized onto protein A—sepharose beads (Santa Cruz Biotechnology, Santa Cruz, Calif., USA). Beads were washed twice with an IP buffer (137 mM NaCl, 2.7 mM KCl, 1 mM MgCl2, 1 mM CaCl2, 1% NP-40, 10% glycerol, 1 mg/ml bovine serum albumin, and 20 mM Tris; pH 8.0), boiled in a sodium dodecyl sulfate-polyacrylamide gel electrophoresis (SDS-PAGE) sample buffer, and centrifuged (12000×g, 4° C. for 15 min).
The recombinant proteins rCCN2 (BioVendor Com. Heidelberg, Germany), rEGFR, and rEGF (R&D Techne Corporation) ([…]) were added in binding buffer (50 mM sodium phosphate, pH 7.5, 500 mM NaCl, and I% Nonidet P-40) and incubated with gentle rotation at 4° C. for 2 h. Thereafter, crosslinks were reversed by boiling in an SDS-PAGE sample buffer (containing 0.1M dithiothreitol (DTT)) before loading on SDS-PAGE gels for immunoblotting analysis. […]

ERK = assay: Western blot of ERK phosphorylation; format: cell-based, human; details: CL1-5, A549 and CL1-0/siCCN2; with increasing time; FIG. 3A
Protocol: (§1) Proteins ([…]) were separated by SDS-PAGE and transferred to a polyvinylidene difluoride membrane (Immobilon-P membrane; Millipore) by electrotransfer. The blot was blocked in a solution of 5% skim milk and 0.1% Tween 20 in PBS. Thereafter, membrane-bound proteins were probed with the following primary antibodies: CCN2, DAPK, phosphorylated ERK, ERK-1, phosphorylated Akt, Akt, TrkA, phosphorylated-Src, Src, b-actin, a-tubulin (Santa Cruz Biotechnology), p-EGFR, and EGFR (Cell Signaling Technology, Danvers, MA, USA). The membrane was washed and then incubated with HRP-conjugated secondary antibodies for 30 min. Enhanced chemiluminescence reagents (Amersham Pharmacia Biotech, Piscataway, N.J., USA) were employed to depict the protein bands on membranes. The light was captured on Kodak X-Omat Blue autoradiography film (PerkinElmer Life Sciences, Boston, Mass., USA).
This embodiment focuses on the effect of CCN2 on the EGFR-induced signaling pathways. At first, the effect of exogenous CCN2(rCCN2) on the MAPK/AKT signaling pathways in the lung adenocarcinoma cell lines, CL1-5, A549 and CL1-0/siCCN2 was observed by western blot analysis, the results shown in FIG. 3A.

β-pix/c-Cbl complex = assay: Immunoprecipitation/western blot of β-pix/c-Cbl complex and β-pix phosphorylation; format: cell-based, human; details: CL1-5; 0 to 60 minutes; FIG. 4G
Protocol: as §1
CCN2 transfectants were seeded overnight and incubated in serum-free media for 24 h. For immunoprecipitations, cells were lysed in an RIPA buffer (150 mM NaCl, 50 mM Tris-base, 5 mM EDTA, 1% NP-40, and 0.25% deoxycholate; pH 7.4). Protein concentrations were determined using the BCA protein assay kit (Pierce, Rockford, Ill., USA). […]

DAPK = assay: Western blot of DAPK expression; format: cell-based, human
Protocol: as §1
This embodiment focuses on the downstream signaling in CCN2-induced anoikis. At first, the effect of DAPK which can up-regulate CCN2 played on CCN2 induced anoikis and metastasis inhibition of lung adenocarcinoma cell lineswas observed by RT-PCR, dual luciferase reporter assay and western blot analysis, the results shown in FIGS. 6A to 6C. […] In addition, in the lung adenocarcinoma cell line, CL1-0/siCCN2, DAPK expression is suppressed, and DAPK expression also be suppressed with increasing dose (0 μg, 1μg, 3μg), (as shown on the top right in the FIG. 6C). Therefore, CCN2 induced DAPK expression in time- and dose-dependent manners.

[2] = tested on: lung adenocarcinoma cell line, CL1-0/siCCN2; assay: Anoikis assay with DAPK siRNA; format: cell-based, human; details: CL1-0/siCCN2 in suspension, DAPK expression decreased due to siRNA; 24 h; FIG. 6C
[3] = tested on: mutated-type EGFR (L858R); assay: Western blot of EGFR expression, H1299 mutated-type EGFR; format: cell-based, human; details: H1299 (single mutation point, L858R); 0 minutes to 4 hours; FIG. 7
Protocol: as §1
(§2) First, the effect of rCCN2 on the wild-type EGFR […] lung adenocarcinoma cell line, the mutated-type EGFR H1299 lung adenocarcinoma cell line, and the mutated-type EGFR H1975 lung adenocarcinoma cell line was observed by western blot analysis, the results shown in FIG. 7(Cell lysates of H1299 transfectants or H1975 cells were immunoblotted with anti-EGFR).

[4] = tested on: mutated-type EGFR (L858R and T790M); assay: Western blot of EGFR expression, H1975; format: cell-based, human; details: 0 to 4 hours, FIG. 7
Protocol: as §1, §2

EGFR [5] = assay: Western blot of EGFR expression in PC9/WT and PC9/IR; format: cell-based; details: 100 ng/mL rCCN2, 0 to 12 hours, FIG. 8C
Protocol: as §1

[6] = target: T1, Epidermal growth factor receptor (EGFR) (human, UniProt P00533 25-1210); assay: FACS on CL1-5 and A549 cells (legend of FIG. 2B)
T1 construct: whole, on cells; FACS and immunoprecipitation used EGFR in or on cells
Protocol: After washing, cells were stained with an FITC-labelled goat anti-rabbit secondary antibody (Santa Cruz Biotechnology) for 30 min in the dark. Analysis was then conducted with an FACS Calibur cytometer (Collaborative Biomedical, BD Biosciences).

- physical association between CCN2 and EGFR (EGFR [1]): there is a physically association
- binding result [6]: binds
B1: Connective tissue growth factor (CCN2), wild-type full length (ligand, human, UniProt P29279 27-349, looked up)
chain: QNCSGPCRCPDEPAPRCPAGVSLVLDGCGCCRVCAKQLGELCTERDPCDPHKGLFCHFGSPANRKIGVCTAKDGAPCIFGGTVYRSGESFQSSCKYQCTCLDGAVGCMPLCSMDVRLPSPDCPFPRRVKLPGKCCEEWVCDEPKDQTVVGPALAAYRLEDTFGPDPTMIRANCLVQTTEWSACSKTCGMGISTRVTNDNASCRLEKQSRLCMVRPCEADLEENIKKGKKCIRTPKISKPIKFELSGCTSMKTYRAKFCGVCTDGRCCTPHRTTTLPVEFKCPDGEVMKKNMMFIKTCACHYNCPGDNDIFESLYYRKMYGDMA
notes: also called Recombinant CCN2; exogenous CCN2
- phosphorylation of ERK (p-ERK1/2) (ERK): gradually reduce the phosphorylation of ERK
- formation of β-pix/c-Cbl complex (β-pix/c-Cbl complex): gradually reduce the formation of β-pixie-Chi complex
- β-pix phosphorylation (β-pix/c-Cbl complex): reduces β-pix phosphorylation
- DAPK expression (DAPK; CL1-5, A549 and CL1-0/siCCN2, increasing time 0 minutes to 12 hours, FIG. 6B): promote DAPK expression
- DAPK expression (DAPK; CL1-5, increasing dose (0 μm, 1μg, 3 μg), FIG. 6C): promote DAPK expression
- rCCN2 induced DNA fragmentation [2]: decreased
- expression of EGFR [3]: inhibit the expression of EGFR more significantly
- expression of EGFR [4]: inhibit the expression of EGFR more significantly
- expression of EGFR (EGFR [5]; attached PC9/IR): suppressed more significantly
- expression of EGFR (EGFR [5]; attached PC9/WT): suppressed more significantly
